Laboratory results from publication PMC3664792 (Nucleic Acids Research, 2013).

What was measured:
α270-His6 = α270-His6 (E. coli, UniProt P10443 1-270); assay: NMR
[1] = biological target: α270(L21P) in construct A (E. coli, UniProt P10443 1-270, Leu21Pro); assay: crystal structure
[2] = biological target: α270 in construct A (εCTS35–α270) (E. coli, UniProt P10443 1-270); assay: NMR
β2 sliding clamp = β2 sliding clamp (E. coli, UniProt P0A988 1-366); assay: SEC
His6-αGL = His6-αGL (E. coli, UniProt P10443 1-1160, A921L | M923L | Val832Gly); assay: pull-down

B1: εCTS59 (domain or fragment)
chain: MAFAMEGETQQQQGEATIQRIVRQASKLRVVFATDEEIAAHEARLDLVQKKGGSCLWRA
α270-His6
  binding result: binds

B2: εCTS44 (residues 200–243 of ε) in construct A (domain or fragment)
chain: ATIQRIVRQASKLRVVFATDEEIAAHEARLDLVQKKGGSCLWRA
[1]
  binding result: binds

B3: εCTS35 (residues 209–243 of ε) in construct A (domain or fragment)
chain: ASKLRVVFATDEEIAAHEARLDLVQKKGGSCLWRA
[1]
  binding result: binds
[2]
  binding result: binds

B4: εL (natural protein)
chain: MSTAITRQIVLDTETTGMNQIGAHYEGHKIIEIGAVEVVNRRLTGNNFHVYLKPDRLVDPEAFGVHGIADEFLLDKPTFAEVADEFMDYIRGAELVIHNAAFDIGFMDYEFSLLKRDIPKTNTFCKVTDSLAVARKMFPGKRNSLDALCARYEIDNSKRTLHGALLDAQILAEVYLAMTGGQLSLPLAMEGETQQQQGEATIQRIVRQASKLRVVFATDEEIAAHEARLDLVQKKGGSCLWRA
β2 sliding clamp
  binding result: binds
His6-αGL
  binding result: binds
